Results published in patent publication US8093037B2, “Engineered microorganisms with enhanced fermentation activity” (Verdezyne, Inc., priority 2009, dated 2012).

What was measured:
[1] = Heterologous xylose isomerase expression in yeast (active yes/no); type: cell-based, Saccharomyces cerevisiae; settings: xylose isomerase of donor organism expressed in engineered yeast (S. cerevisiae)
[2] = Xylose isomerase activity assay (sorbitol dehydrogenase/NADH coupled, Kuyper et al.), soluble whole cell extract; type: biochemical, Saccharomyces cerevisiae
[3] = EDA activity assay with saturating amounts of E. coli expressed EDD extract; type: biochemical, Saccharomyces cerevisiae
Method: Grow 5 ml LB-Kan preps of BF1055 (BL21/DE3 with pET26b empty vector) and BF1706 (BL21DE3 with pET26b+E. coli EDD).
Grow 50 ml LB-Kan prep of BF1055, 2% (v/v) inoculate.
Grow 50 ml prep of BF1706 using Novagen's Overnight Express (46.45 ml LB-Kan, 1 ml solution 1, 2.5 ml solution 2, 50 μl solution 3, 5 μl of 1M MnCl2, 50 μl of 0.5 M FeCl2), 2% (v/v) inoculate.
Inoculate to OD600 of 0.2.
EDD extractions (adapted from Chemyan et al, Protein Science 16:2368-2377, 2007): • 1) Pellet cells in 50 ml conical tubes, 4° C., 3,000 rpm, 10 mins, discard supernatant. • 2) Resuspend in 2 ml degassed PDGH buffer (20 mM MES pH 6.5, 30 mM NaCl, 5 mM MnCl2, 0.5 mM FeCl2, 10 mM 2-mercaptoethanol, 10 mM cysteine, sparged with nitrogen gas). Move to hungate tube. • 3) Add 0.1% Triton X-100, 10 ng/ml DNase, 10 μg/ml PMSF, 10 μg/ml TAME (Nα-(p-toluene sulfonyl)-L-arginine methyl ester), 100 μg/ml lysozyme. • 4) Sparge hungate tube with nitrogen gas, cap and seal. Incubate 2 hours at 37° C., swirl occasionally. • 5) Clarify by centrifugation in 2-ml tube, 4° C., 10 mins, 14,000 rpm. Keep supernatant. • 6) Treat with 150 mM pyruvate and 10 mM sodium cyanoborohydride (work in hood) to inactivate aldolase activity. Incubate 30 mins at room temperature. • 7) During incubation, pre-equilibrate PD-10 column from GE • a. Remove top cap, pour off storage buffer. • b. Cut off bottom tip, fit in 50 ml conical with adapter. • c. Pour 5 ml of 20 mM MES buffer, pH 6.5 (total of 5 times). Discard flow-through. • 8) Run sample through column, then add MES buffer to a total of 2.5 ml volume added. Discard flow-through. • 9) Run 3.5 ml 20 mM MES pH 6.5 buffer to elute protein. Discard column in appropriate waste receptacle. • 10) Perform Bradford assay (1:10 or 1:20 dilution). […]
Each reaction contains 50 mM Tris-HCl, pH 7, 10 mM MgCl2, 0.15 mM NADH, 15 μg LDH, saturating amounts of EDD determined empirically (usually ˜100 μg), 1-50 μg EDA (depending on level of activity), and 1 mM 6-phosphogluconate. Reactions are started by the addition of 6-phosphogluconate and monitored for 5 mins at 30° C.

With “Actinoplanes missouriensis: xylose isomerase of this donor organism, expressed in S. cerevisiae” the “Active? (yes/no)” value [1] was “No”.

With “Bacteroides thetaiotaomicron: xylose isomerase of this donor organism, expressed in S. cerevisiae” the “Active? (yes/no)” value [1] was “Yes”.

For “Streptomyces rubiginosus: xylose isomerase of this donor organism, expressed in S. cerevisiae”, the “Active? (yes/no)” value [1] was “No”.

For “Thermus thermophilus: xylose isomerase of this donor organism, expressed in S. cerevisiae”, the “Active? (yes/no)” value [1] was “Yes”.

B1: Bacillus subtilis: xylose isomerase of this donor organism, expressed in S. cerevisiae (protein, UniProt P0CI80 1-445, looked up)
Xylose isomerase: MAQSHSSSINYFGSANKVVYEGKDSTNPLAFKYYNPQEVIGGKTLKEHLRFSIAYWHTFTADGTDVFGAATMQRPWDHYKGMDLAKMRVEAAFEMFEKLDAPFFAFHDRDIAPEGSTLKETNQNLDMIMGMIKDYMRNSGVKLLWNTANMFTNPRFVHGAATSCNADVFAYAAAQVKKGLETAKELGAENYVFWGGREGYETLLNTDLKFELDNLARFMHMAVDYAKEIGYTGQFLIEPKPKEPTTHQYDTDAATTIAFLKQYGLDNHFKLNLEANHATLAGHTFEHELRMARVHGLLGSVDANQGHPLLGWDTDEFPTDLYSTTLAMYEILQNGGLGSGGLNFDAKVRRSSFEPDDLIYAHIAGMDAFARGLKVAHKLIEDRVFEDVIQHRYRSFTEGIGLEIIEGRANFHTLEQYALNHKSIKNESGRQEKLKAILNQYILEV
modifications: expressed in S. cerevisiae
With B1 the “Active? (yes/no)” value [1] was “No”.

B2: Bacillus licheniformis: xylose isomerase of this donor organism, expressed in S. cerevisiae (protein, UniProt P77832 1-448, looked up)
Xylose isomerase: MFFRNIGMIEYEGADSENPYAFKYYNPDEFVGGKTMKEHLRFAVAYWHTFDADGKDPFGDGTMFRAWNRLTHPLDKAKARAEAAFEFFEKLGVPYFCFHDVDIVDEGATLRETFTYLDQMSSFLKEMMETSHVQLLWNTANMFTHPRYVHGAATSCNADVYAYAAAKVKKGLDIAKELGAENYVFWGGREGYETLLNTDMKLELENLSSFYRMAVEYAREIGFDGQFLIEPKPKEPTKHQYDFDAATTIAFLETYGLKDHFKLNLEANHATLAGHTFEHELRVAALHDMLGSIDANQGDLLLGWDTDEFPTDLYSAVLAMYEILKAGGFKTGGINFDAKVRRPSFADEDLFHAHIAGMDTYAVGLKVASRLLEDKALDQVIEERYESYTKGIGLEIKEGRTDLKKLAAYALENDHIENQSGRQERLKATVNRYLLNALREAPAGKETH
In the case of B2, the “Active? (yes/no)” value [1] is reported as “No”.

B3: R. flavefaciens, FD-1 XI: xylose isomerase of Ruminococcus FD1, ZP_06143883.1, SEQ ID NO: 110 (protein, listed as Ruminococcus flavefaciens)
chain: MEFFKNISKIPYEGKDSTNPLAFKYYNPDEVIDGKKMRDIMKFALSWWHTMGGDGTDMFGCGTADKTWGENDPAARAKAKVDAAFEIMQKLSIDYFCFHDRDLSPEYGSLKDTNAQLDIVTDYIKAKQAETGLKCLWGTAKCFDHPRFMHGAGTSPSADVFAFSAAQIKKALESTVKLGGTGYVFWGGREGYETLLNTNMGLELDNMARLMKMAVEYGRSIGFKGDFYIEPKPKEPTKHQYDFDTATVLGFLRKYGLDKDFKMNIEANHATLAQHTFQHELCVARTNGAFGSIDANQGDPLLGWDTDQFPTNIYDTTMCMYEVIKAGGFTNGGLNFDAKARRGSFTPEDIFYSYIAGMDAFALGYKAASKLIADGRIDSFISDRYASWSEGIGLDIISGKADMAALEKYALEKGEVTDSISSGRQELLESIVNNVIFNL
For B3, the “slope of the activity at saturating xylose (FIG. 25)” value ([2]; 500 mM xylose, 100 μg total soluble crude extract) was “highest activity of the candidates tested” and the “specific activity relative to the native XI control” value ([2]; xylose between 40 and 500 nM) was “greater than 2 fold”.

B4: Burkholderia xenovorans: xylose isomerase of this donor organism, expressed in S. cerevisiae (protein, UniProt Q13RB8 1-440, looked up)
Xylose isomerase: MSYFEHIPEIRYEGPQSDNPLAYRHYDKSKKVLGKTLEEHLRIAVCYWHTFVWPGVDIFGQGTFRRPWQQAGDAMERARQKADSAFEFFSKLGTPYYTFHDTDVSPEGSSLKEYSENFLRITDYLARKQEDTGIKLLWGTANLFSHPRYAAGAATSPDPEVFAFAATQVRHALDATQRLGGDNYVLWGGREGYDTLLNTDLMRERDQLARFLHMVVDHAHKIGFKGSLLIEPKPQEPTKHQYDYDVATVHGFLLQHGLEKEIRVNIEANHATLAGHSFHHEIATAYALGIFGSVDANRGDPQNGWDTDQFPNSVEELTLAFYEILKHGGFTTGGMNFDSKVRRQSVDPEDLFYGHIGAIDNLALAVERAAVLIENDRLDQFKRQRYAGWDADFGRKILSGDYSLSTLATDALARGLNPQHASGHQELMENIVNQAIYSGR
For B4, the “Active? (yes/no)” value [1] was “No”.

B5: Clostridium thermosulfurogenes: xylose isomerase of this donor organism, expressed in S. cerevisiae (protein, UniProt P19148 1-439, looked up)
Xylose isomerase: MNKYFENVSKIKYEGPKSNNPYSFKFYNPEEVIDGKTMEEHLRFSIAYWHTFTADGTDQFGKATMQRPWNHYTDPMDIAKARVEAAFEFFDKINAPYFCFHDRDIAPEGDTLRETNKNLDTIVAMIKDYLKTSKTKVLWGTANLFSNPRFVHGASTSCNADVFAYSAAQVKKALEITKELGGENYVFWGGREGYETLLNTDMEFELDNFARFLHMAVDYAKEIGFEGQFLIEPKPKEPTKHQYDFDVANVLAFLRKYDLDKYFKVNIEANHATLAFHDFQHELRYARINGVLGSIDANTGDMLLGWDTDQFPTDIRMTTLAMYEVIKMGGFDKGGLNFDAKVRRASFEPEDLFLGHIAGMDAFAKGFKVAYKLVKDRVFDKFIEERYASYKDGIGADIVSGKADFRSLEKYALERSQIVNKSGRQELLESILNQYLFAE
For B5, the “Active? (yes/no)” value [1] was “No”.

B6: EDA-E. coli: 2-keto-3-deoxygluconate-6-phosphate aldolase (eda) of E. coli (protein, UniProt P0A955 1-213, looked up)
KHG/KDPG aldolase: MKNWKTSAESILTTGPVVPVIVVKKLEHAVPMAKALVAGGVRVLEVTLRTECAVDAIRAIAKEVPEAIVGAGTVLNPQQLAEVTEAGAQFAISPGLTEPLLKAATEGTIPLIPGISTVSELMLGMDYGLKEFKFFPAEANGGVKALQAIAGPFSQVRFCPTGGISPANYRDYLALKSVLCIGGSWLVPADALEAGDYDRITKLAREAVEGAKL
For B6, the “EDA activity compared to the other EDAs, repeated experiment (FIG. 24)” value ([3]; 100 μg EDD and 25 μg EDA cell lysate (5 μg of E. coli EDA)) was “most active of those EDA's tested”, the “EDA activity compared to the other EDAs” value ([3]; first experiment) was “higher activity as compared to the other EDA activities” and the “EDA activity relative to the EDA from P. aeruginosa” value ([3]; first experiment, E. coli slope outside linear range) was “approximately 16 fold”.

B7: Escherichia coli: xylose isomerase of this donor organism, expressed in S. cerevisiae (protein, UniProt P00944 1-440, looked up)
Xylose isomerase: MQAYFDQLDRVRYEGSKSSNPLAFRHYNPDELVLGKRMEEHLRFAACYWHTFCWNGADMFGVGAFNRPWQQPGEALALAKRKADVAFEFFHKLHVPFYCFHDVDVSPEGASLKEYINNFAQMVDVLAGKQEESGVKLLWGTANCFTNPRYGAGAATNPDPEVFSWAATQVVTAMEATHKLGGENYVLWGGREGYETLLNTDLRQEREQLGRFMQMVVEHKHKIGFQGTLLIEPKPQEPTKHQYDYDAATVYGFLKQFGLEKEIKLNIEANHATLAGHSFHHEIATAIALGLFGSVDANRGDAQLGWDTDQFPNSVEENALVMYEILKAGGFTTGGLNFDAKVRRQSTDKYDLFYGHIGAMDTMALALKIAARMIEDGELDKRIAQRYSGWNSELGQQILKGQMSLADLAKYAQEHHLSPVHQSGRQEQLENLVNHYLFDK
In the case of B7, the “Active? (yes/no)” value [1] is reported as “No”.

B8: Staphylococcus xylosus: xylose isomerase of this donor organism, expressed in S. cerevisiae (protein, UniProt P27157 1-439, looked up)
Xylose isomerase: MSYFDINKVNYEGPKSNNAFSFKYYNPEEKLGNHSMSELLRFSVAYWHTFTADLSDPFGVGVAERDWDSLDEMEKAKARVEAIFEFMEKTRIDYFCFHDVDISPEGASLKESNENLDIIVELIKEKMDQTGKKLLWNTTNNFTHERFVHGAATSSNAEVFAYAAAKVKKSLEIAKKLGSENFVFWGGREGYESLLNTNMKLELDNLATFFKMAKSYADEIGYTGQFLIEPKPKEPTTHQYDTDVATAHAFLQKYDLDKDFKFNIEANHATLAGHTFQHELRYARDNNMLGSVDANQGHPLLGWDTDESTDVYDTTLAMYEILKNGGLAPGGLNFDAKPRRTSFKQEDLILTHIAGMDTFALGLRVAYKMIEDNFFENIMDEKYKSFNEGIGKKIVEGETSLKELEDYAFNINTINNTSDHLEVIKSQINQYILNINNKD
For B8, the “Active? (yes/no)” value [1] was “No”.
